Laboratory results as given in the supplement of paper PMC10567573.

B1: ADAMTS4 (parent)
chain: HVDPEEPWSPCSARFITDFLDNGY
B2: CDC14A (parent)
chain: LNLAMVYRYCCKLNKKLKSYSLSR

Variants of: B1
Assay: protein stability index of a GFP-peptide fusion (GPS, HEK-293T) (PSI 1-6); higher = more stable
Conditions: c terminus: a fixed tail appended
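Further: lentivirally expressed fusions sorted by FACS into six bins by GFP to DsRed ratio, PSI derived from sequencing read proportions per bin multiplied by bin number.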

Variant | protein stability index
HVDPEEPWSPCSARFITDFWDNGY | 1.59
HVDPEEPWSPCSARFITDFDDNGY | 2.22
HVDPEEPWSPCSARFITDFQDNGY | 2.28
HVDPEEPWSPCSARFITDFYDNGY | 2.14
HVDPEEPWSPCSARFITDFCDNGY | 1.52
HVDPEEPWSPCSARFITDFFDNGY | 2.04
HVDPEEPWSPCSGRFITDFLDNGY | 1.5
HVDPEEPWSPCSIRFITDFLDNGY | 2.19
HVDPEEPWSPCSLRFITDFLDNGY | 1.88
HVDPEEPWSPCSFRFITDFLDNGY | 1.92
HVDPEEPWSPVSARFITDFLDNGY | 1.82
HVDPEEPWSPKSARFITDFLDNGY | 2.21
HVDPEEPWSPGSARFITDFLDNGY | 2.05
HVDPEEPWSPNSARFITDFLDNGY | 1.9
HVDPEEPWSPDSARFITDFLDNGY | 2.05
HVDPEEPWSPTSARFITDFLDNGY | 2.15
HVDPEEPWSPESARFITDFLDNGY | 2
HVDPEEPWSPISARFITDFLDNGY | 1.79
HVDPEEPWSPQSARFITDFLDNGY | 2.18
HVDPEEPWSPCSARFITDFLDNNY | 1.61
HVDPEEPWSPCSARFITDFLDNLY | 1.82
HVDPEEPWSPCSARFITDFLDNPY | 2.1
HVDPEEPWSPCSARFITDFLDNTY | 2.22

Variant | protein stability index
HVDPEEPWSPCSARFITDFLDNHY | 2.12
HVDPEEPWSPCSARFITDFLDNGT | 2
HVDPEEPWSPCSARFITDFLDNGA | 2.32
HVDPEEPWSPCSARFITDFLDNGF | 2.17
HVDPEEPWSPCSARFITDFLDNGN | 2.21
HVDPEEPWSPCSARFITDFLDNGE | 2.01
HVDPEEPWSPCSARFITDFLDNGW | 1.64
HVDPEEPWSPCSARFITDFLDTGY | 1.46
HVDPEEPWSPCSARFITDFLDAGY | 1.8
HVDPEEPWSPCSARFITDFLDRGY | 1.7
HVDPEEPWSPCSARFITDFLDDGY | 1.88
HVDPEEPWSPCSARFITDFLDWGY | 1.3
HVDPEEPWSPCSARFITDFLENGY | 1.71
HVDPEEPWSPCSARFITDFLTNGY | 1.96
HVDPEEPWSPCSARFITDFLLNGY | 1.6
VVDPEEPWSPCSARFITDFLDNGY | 2.04
PVDPEEPWSPCSARFITDFLDNGY | 2.57
KVDPEEPWSPCSARFITDFLDNGY | 1.91
LVDPEEPWSPCSARFITDFLDNGY | 1.78
QVDPEEPWSPCSARFITDFLDNGY | 2.31
DVDPEEPWSPCSARFITDFLDNGY | 2.4
HVDPEEPWSPCSARTITDFLDNGY | 1.64
HVDPEEPWSPCSARCITDFLDNGY | 1.97

Variant | protein stability index
HVDPEEPWSPCSARMITDFLDNGY | 1.91
HVDPEEPWSPCSARYITDFLDNGY | 2.01
HVDPEEPWSPCSARHITDFLDNGY | 1.98
HVDPEEPWSPCSARSITDFLDNGY | 1.88
HVDPEEPWSPCSARFILDFLDNGY | 2.39
HVDPEEPWSPCSARFIHDFLDNGY | 2.05
HVDPEEPWSPCSARFIYDFLDNGY | 1.83
HVDPEEPWSPCSARFIPDFLDNGY | 1.88
HVMPEEPWSPCSARFITDFLDNGY | 1.89
HVPPEEPWSPCSARFITDFLDNGY | 1.85
HVDPEEWWSPCSARFITDFLDNGY | 2.54
HVDPEEIWSPCSARFITDFLDNGY | 1.61
HVDPEEPWSPCSARFITDNLDNGY | 2.05
HVDPEEPWSPCSARFITDWLDNGY | 1.93
HVDPEEPWSPCSARFITIFLDNGY | 2.73
HVDPEEPWSPCSARFITLFLDNGY | 2.6
HVDPEEPWSPCSARFITQFLDNGY | 1.67
HVDPEEPWSPCSARFITEFLDNGY | 1.99
HVDPEEPWSPCSARFITWFLDNGY | 1.53
HVDPEEPWSPCSARFITYFLDNGY | 1.94
HVDPSEPWSPCSARFITDFLDNGY | 2.35
HVDPWEPWSPCSARFITDFLDNGY | 2.79
HVDPEEPWSPCSARFVTDFLDNGY | 1.97

Variant | protein stability index
HVDPEEPWSPCSARFMTDFLDNGY | 1.69
HVDPEEPWSPCSARFFTDFLDNGY | 1.63
HVDLEEPWSPCSARFITDFLDNGY | 1.63
HVDYEEPWSPCSARFITDFLDNGY | 1.98
HVDEEEPWSPCSARFITDFLDNGY | 2.07
HVDPEEPWSPCPARFITDFLDNGY | 1.4
HVDPEEPWSPCKARFITDFLDNGY | 1.55
HVDPEEPWSPCNARFITDFLDNGY | 2.05
HVDPEEPWSPCQARFITDFLDNGY | 2.1
HVDPEEPWSPCCARFITDFLDNGY | 1.8
HVDPEEPWSPCFARFITDFLDNGY | 1.86
HVDPEEPWSPCTARFITDFLDNGY | 1.47
HVDPEEPWSPCLARFITDFLDNGY | 2.12
HVDPEEPWSPCEARFITDFLDNGY | 1.88
HVDPEEPWSPCYARFITDFLDNGY | 1.83
HVDPEEPWSPCSAYFITDFLDNGY | 1.71
HVDPEEPWSPCSAPFITDFLDNGY | 1.87
HVDPEEPWSPCSAKFITDFLDNGY | 2.32
HVDPEEPWSPCSAGFITDFLDNGY | 2.15
HVDPEEPWSPCSATFITDFLDNGY | 1.83
HVDPEEPWSPCSAEFITDFLDNGY | 2.58
HVDPEEPWAPCSARFITDFLDNGY | 2.05
HVDPEEPWHPCSARFITDFLDNGY | 2.17

Variant | protein stability index
HVDPEEPWQPCSARFITDFLDNGY | 1.62
HVDPEEPWWPCSARFITDFLDNGY | 1.75
HVDPEEPWEPCSARFITDFLDNGY | 3.19
HVDPEEPKSPCSARFITDFLDNGY | 3.48
HVDPEEPQSPCSARFITDFLDNGY | 3.37
HVDPEEPMSPCSARFITDFLDNGY | 2.82
HVDPEEPESPCSARFITDFLDNGY | 3.92
HVDPEEPASPCSARFITDFLDNGY | 3.47
HVDPEEPSSPCSARFITDFLDNGY | 3.27
HVDPECPWSPCSARFITDFLDNGY | 2.21
HVDPEIPWSPCSARFITDFLDNGY | 1.56
HLDPEEPWSPCSARFITDFLDNGY | 2.23
HADPEEPWSPCSARFITDFLDNGY | 2.36
HFDPEEPWSPCSARFITDFLDNGY | 2.14
HIDPEEPWSPCSARFITDFLDNGY | 2.56
HRDPEEPWSPCSARFITDFLDNGY | 2.4
HTDPEEPWSPCSARFITDFLDNGY | 2.2
HWDPEEPWSPCSARFITDFLDNGY | 2.08
HSDPEEPWSPCSARFITDFLDNGY | 2.55
HVDPEEPWSDCSARFITDFLDNGY | 2.22
HVDPEEPWSGCSARFITDFLDNGY | 1.88
HVDPEEPWSLCSARFITDFLDNGY | 1.72
HVDPEEPWSMCSARFITDFLDNGY | 2.14

Variants of: B2
Assay: as above
Conditions: c terminus: a fixed tail appended

Variant | protein stability index
LNLAMVYRYCCKVNKKLKSYSLSR | 4.56
LNLAMVYRYCCKYNKKLKSYSLSR | 2.32
LNLAMVYRYCCKNNKKLKSYSLSR | 1.89
LNLAMVYRYCCKLNKKLKSYSLSH | 2.69
LNLAMVYRYCCKLNKKLKSYSLSC | 3.05
LNLAMVYRYNCKLNKKLKSYSLSR | 1.95
LNLAMVYRYKCKLNKKLKSYSLSR | 1.65
LNLAMVYRYCDKLNKKLKSYSLSR | 2.85
LNLAMVYRYCPKLNKKLKSYSLSR | 1.97
LNLAMVYRYCYKLNKKLKSYSLSR | 2.63
LNLAMVYRYCRKLNKKLKSYSLSR | 2.64
LNLAMVYRYCCKLCKKLKSYSLSR | 3.38
LNLAMVYRYCCKLHKKLKSYSLSR | 3.21
LNLYMVYRYCCKLNKKLKSYSLSR | 2.91
LNLVMVYRYCCKLNKKLKSYSLSR | 2.74
LNLGMVYRYCCKLNKKLKSYSLSR | 3.33
LNLAMVYRMCCKLNKKLKSYSLSR | 1.81
LNLAMVYRNCCKLNKKLKSYSLSR | 2.03
LNLAMVYRYCCKLNNKLKSYSLSR | 2.31
LNLAMVYRYCCKLNHKLKSYSLSR | 3.69
LNLAMVYRYCCKLNKTLKSYSLSR | 3.67
LNLAMVYRYCCKLNKSLKSYSLSR | 2.33
LNLAMVYRYCCKLNKCLKSYSLSR | 4.54
LNLAMVYRYCCKLNKKHKSYSLSR | 2.21
LNLAMVYRYCCKLNKKYKSYSLSR | 3.33

Variant | protein stability index
LNLAMVYRYCCKLNKKGKSYSLSR | 2.85
LNLAMVYRYCCKLNKKFKSYSLSR | 2.64
LNLAMVYRYCCKLNKKDKSYSLSR | 2.14
LNVAMVYRYCCKLNKKLKSYSLSR | 2.59
LNMAMVYRYCCKLNKKLKSYSLSR | 2.88
LNAAMVYRYCCKLNKKLKSYSLSR | 2.74
LNDAMVYRYCCKLNKKLKSYSLSR | 2.29
LNHAMVYRYCCKLNKKLKSYSLSR | 1.8
LNKAMVYRYCCKLNKKLKSYSLSR | 3.48
LNIAMVYRYCCKLNKKLKSYSLSR | 2.02
LNSAMVYRYCCKLNKKLKSYSLSR | 2.2
LNLAMVYRYCCKLNKKLGSYSLSR | 3.2
LNLAMVYRYCCKLNKKLPSYSLSR | 2.5
LNLAMVYRYCCKLNKKLVSYSLSR | 2.46
LNLAMVYRYCCKLNKKLKSTSLSR | 2.42
LNLAMVYRYCCKLNKKLKSWSLSR | 3.32
LNLAMVYRYCCKLNKKLKSNSLSR | 2.16
LNLAYVYRYCCKLNKKLKSYSLSR | 3.21
LNLAGVYRYCCKLNKKLKSYSLSR | 3.92
LNLAEVYRYCCKLNKKLKSYSLSR | 3
LNLAFVYRYCCKLNKKLKSYSLSR | 2.8
LNLAHVYRYCCKLNKKLKSYSLSR | 3.35
LTLAMVYRYCCKLNKKLKSYSLSR | 2.24
LNLAMVYDYCCKLNKKLKSYSLSR | 3.23
LNLAMVYGYCCKLNKKLKSYSLSR | 3.71

Variant | protein stability index
LNLAMVYPYCCKLNKKLKSYSLSR | 2.09
LNLAMVYRYCCKLNKKLKSYSLLR | 2.37
LNLAMVYRYCCKLNKKLKSYSLIR | 3.46
LNLAMVYRYCCKLNKKLKSYSLRR | 4.26
LNLAMPYRYCCKLNKKLKSYSLSR | 2.15
LNLAMIYRYCCKLNKKLKSYSLSR | 3.28
LNLAMVYRYCCKLNKKLKSYNLSR | 2.51
LNLAMVYRYCCKLNKKLKSYWLSR | 2.86
LNLAMVYRYCCKLNKKLKSYCLSR | 3.76
LNLAMVYRYCCFLNKKLKSYSLSR | 2.18
LNLAMVYRYCCWLNKKLKSYSLSR | 2.14
LNLAMVYRYCCVLNKKLKSYSLSR | 2.59
LNLAMVYRYCCMLNKKLKSYSLSR | 2.19
LNLAMVYRYCCKLNKKLKLYSLSR | 2.5
LNLAMVYRYCCKLNKKLKKYSLSR | 2.19
LNLAMVYRYCCKLNKKLKSYSVSR | 1.04
LNLAMVYRYCCKLNKKLKSYSKSR | 2.39
LNLAMVYRYCCKLNKKLKSYSYSR | 4.37
LNLAMVYRYCCKLNKKLKSYSDSR | 2.2
LNLAMVYRYCCKLNKKLKSYSHSR | 3.37
DNLAMVYRYCCKLNKKLKSYSLSR | 3.11
LNLAMVCRYCCKLNKKLKSYSLSR | 2.73
LNLAMVHRYCCKLNKKLKSYSLSR | 2.68
